The series can be described thus: yeast display, Sf9 membrane polyspecificity reagent, FACS + sequencing; frameworks hold sequencing errors. The essentials: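 Synthetic nanobody libraries on Saccharomyces cerevisiae BJ5465 were galactose-induced for 36–48 hours, stained 1 hour at 4 °C with 10% biotinylated, detergent-solubilized Sf9 membrane reagent and enriched on streptavidin microbeads. FACS then separated cells into low and high (top ~1%) gates by anti-HA (expression) and streptavidin (reagent binding) fluorescence. Genes were colony-PCR amplified, MiSeq 2 × 250 sequenced and CDR-length filtered. A clone's polyreactivity label is that of its gate of origin.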
Take “QVQLVESGGGLVQAGGSLRLSCAASGSIFKVYAMGWYRQAPGKERELVASITSGGRTYADSVKGRFTISRDNAKNTVYLQMNSLKPEDTAVYYCSARSRSKFYYWGQGTQLTVSS”: the “polyreactivity (PSR sort gate)” value is “high polyreactivity”.

As for “QVQLVESGGGLVQAGGSLRLSCAASGSIFKWNAMGWYRQAPGKERELVASITRSGGSTYYADSVKGRFTISRDNAKNTVYLQMNSLKPEDTAVYYCARSYGWYRWAGYDYWGQGTQVTVSS”, the “polyreactivity (PSR sort gate)” value is reported as “high polyreactivity”.

As for “QVQLVESGGGLVQAGGSLRLSCAASGSIFKWYAMGWYRQAPGKERELVAAITRGGSTNYADSVKGRFTISRDNAKNTVYLQMNSLKPEDTAVYYCNAVYTYRSGFGYWGQGTQVTVSS”, the “polyreactivity (PSR sort gate)” value is “low polyreactivity”.

For “QVQLVESGGGLVQAGGSLRLSCAASGSIFKYNPMGWYRQAPGKEMELVATISGGGRTYYADSVKGRFTISRDNAKNTVYLQMNSLKPEDTAVYYCAARKRGTFTYDYWGQGTQVTVSS”, the “polyreactivity (PSR sort gate)” value is recorded as “high polyreactivity”.

On to “QVQLVESGGGLVQAGGSLRLSCAASGSIFKYYAMGWYRQAPGKERELDAAISYSGGRTYYADSVKGRFTISRDNAKNTVYLQMNSLKPEDTAVYYCATDYYYRSAKFLGDYWGQGTQVTVSS”, for which the “polyreactivity (PSR sort gate)” value is recorded as “high polyreactivity”.

For the sequence “QVQLVESGGGLVQAGGSLRLSCAASGSIFKYYAMGWYRQAPGKERELVAAISVRGSRTYYADSVKGRFTISRDNAKNTVYLQMNSLKPEDTAVYYCAADGGYIPPYGYDYWGQGTQVTVSS”, the “polyreactivity (PSR sort gate)” value was “high polyreactivity”.

In the case of “QVQLVESGGGLVQAGGSLRLSCAASGSIFKYYAMGWYRQAPGTERELVAAISTGGTTNYADSVKGRFTISRDNAKNTVYLQMNSLKPEDTAVYYCNRDYLVRSRYKYYYWGQGTQVTVSS”, the “polyreactivity (PSR sort gate)” value is listed as “low polyreactivity”.

With “QVQLVESGGGLVQAGGSLRLSCAASGSIFKYYTMGWYRQAPGKERELVARISTRGDSTYYADSVKGRFTISRDNAKNTVYLQMNSLKPEDTAVYYCNARPGSRRSSTWGMDYWGQGTQVTVSS”, the “polyreactivity (PSR sort gate)” value was “high polyreactivity”.

With “QVQLVESGGGLVQAGGSLRLSCAASGSIFLASAMGWYRQAPGKERELVAAITAGTGSTYYADSVKGRFTISRDNAKNTVYLQMNSLKPEDTAVYYCAKAVSLFRGPFSSFDYWGQGTQVTVSS”, the “polyreactivity (PSR sort gate)” value is “low polyreactivity”.

With “QVQLVESGGGLVQAGGSLRLSCAASGSIFLAYAMGWYRQAPGKEREFVAAISSRGGSTYYADSVKGRFTISRDNAKNTVYLQMNSLKPEDTAVYYCARYKYTRQTRVEYGYWGQGTQVTVSS”, the “polyreactivity (PSR sort gate)” value is reported as “high polyreactivity”.

Turning to “QVQLVESGGGLVQAGGSLRLSCAASGSIFLAYAMGWYRQAPGKERELVADISYSGGRTYYADSVMGRFTISRDNAKNTVYLQMNSLIPEDTAVYYCAADPWHDTDQHGNDYWGQGSQVTVSS”, the “polyreactivity (PSR sort gate)” value is listed as “low polyreactivity”.

For the sequence “QVQLVESGGGLVQAGGSLRLSCAASGSIFLAYAMGWYRQAPGKERELVASTYYADSVKGRFTISRDNAKNTVYLQMNSLKPEDTAVYYCAADRIYSIYVSPYYSFGYWGQGTQVTVSS”, the “polyreactivity (PSR sort gate)” value is “low polyreactivity”.

“QVQLVESGGGLVQAGGSLRLSCAASGSIFLAYDMGWYRQAPGKERELVAAISYTGGSTNYADSVKGRFTISRDNAKNTVYLQMNSLKPEDTAVYYCNTAGDLWIDYGYWGQGTQVTVSS”: the “polyreactivity (PSR sort gate)” value was “low polyreactivity”.

Take “QVQLVESGGGLVQAGGSLRLSCAASGSIFLAYPMGWYRQAPGKEREFVAAISFSDGSTYYADSVKGRFTISRDNAKNTVYLQMNSLKPEDTAVYYCNKRASPDDYDYWGQGTQVTVSS”: the “polyreactivity (PSR sort gate)” value is “low polyreactivity”.

In the case of “QVQLVESGGGLVQAGGSLRLSCAASGSIFLDNAMGWYRPAPGKERELVAAISRRGGTTYYADSVKGRFTISRDNAKNTVYLQLNSLIPEDTAVYYCAARYPGGKYYSYTYNYWGQGTQVTVSS”, the “polyreactivity (PSR sort gate)” value is “high polyreactivity”.

Regarding “QVQLVESGGGLVQAGGSLRLSCAASGSIFLDYAMGWYRQAPGKERELVDGITISGGSTYYADSVKGRFTISRDNAKNTVYLQMNSLKPEYTAVYYCAKVAPRSSSSQEYYYWGQGTQVTVSS”, the “polyreactivity (PSR sort gate)” value was “low polyreactivity”.

With “QVQLVESGGGLVQAGGSLRLSCAASGSIFLGNTMGWYRQAPGKERELVAAITIGGSTHYADSVKGRFTISRDNAKNTVYLQMNSLKPDDTAVYYCAKEGWPFGIDFDYWGQGTQVTVSS”, the “polyreactivity (PSR sort gate)” value was “low polyreactivity”.

In the case of “QVQLVESGGGLVQAGGSLRLSCAASGSIFLGYAMGWYRQAPGKERELVADIDWRDGSTYYADSVKGRFTISRDNAKTTVYLQMNSLKPEDTAVYYCAVYDNLQWDFGIYYEYDYWGQGTQVTVSS”, the “polyreactivity (PSR sort gate)” value is given as “high polyreactivity”.

For “QVQLVESGGGLVQAGGSLRLSCAASGSIFLHNAMGWYRQAPGKERELVAVITSRGGSTYYADSVKGRFTISRDNAKNTVYLQMNSLKPEDTAVYYCAADSRQSDYYYQPTKIDYWGQGTQVTVSS”, the “polyreactivity (PSR sort gate)” value is recorded as “low polyreactivity”.

Take “QVQLVESGGGLVQAGGSLRLSCAASGSIFLHNAMGWYRQAPGKERVLVAVITSRGGSTYYADSVKGRFTISRDNAKNPVYLQMNSLKPEDTAVYYCAAPAYHKRTSRGDYWGQGTQVTVSS”: the “polyreactivity (PSR sort gate)” value is given as “low polyreactivity”.

“QVQLVESGGGLVQAGGSLRLSCAASGSIFLINAMGWYRQAPGKERELVAAISRSGGRTYYADSVKGRFTISRDNAKNTVYLEMNSLKPEDTAVYYCAVPSIYYAVRAYDYWGQGTQVTVSS”: the “polyreactivity (PSR sort gate)” value is “high polyreactivity”.

In the case of “QVQLVESGGGLVQAGGSLRLSCAASGSIFLINAMGWYRQAPGKETELVAAISRSGGRTYYADSVKGRFTISRDNAKNTVYLQMNSLKPEDTAVYYCAVPSIYYAGRAYDYWGQGTQVTVSS”, the “polyreactivity (PSR sort gate)” value was “high polyreactivity”.

Consider “QVQLVESGGGLVQAGGSLRLSCAASGSIFLINAMGWYRQAPGTERELVAAISRRGGSTYYADSVKGRFTISRDNAKNTVYLQMNSLKPEDTAVYYCAATGHGRVYFGGGHWGQGTQVTVSS”, for which the “polyreactivity (PSR sort gate)” value is “high polyreactivity”.

For the sequence “QVQLVESGGGLVQAGGSLRLSCAASGSIFLIYAMGSYRQAPGKERELVATINRGDNTYYADSVKGRFTISRDNAKNTVYLQMNSLKPEDTAVYYCAADVPWGWWDSDFSDNYYWGQGTQVTVSS”, the “polyreactivity (PSR sort gate)” value was “low polyreactivity”.

On to “QVQLVESGGGLVQAGGSLRLSCAASGSIFLIYAMGWYRQAPGKERELVAAISSGGSTYYADSVKGRFTISRDNAKNTVYLQMNSLKPEDTAVYYCATYSTSVAFHLYYWGQGTQVTVSS”, for which the “polyreactivity (PSR sort gate)” value is listed as “low polyreactivity”.

As for “QVQLVESGGGLVQAGGSLRLSCAASGSIFLIYAMGWYRQGPGKERELVAGINWSGSRTYYADSVKGRFTISRDNAKNTVYLQMNSLKPEDTAVYDCAARVRRPLYSAYDSWGQGTQVTVSS”, the “polyreactivity (PSR sort gate)” value is on record as “low polyreactivity”.

Regarding “QVQLVESGGGLVQAGGSLRLSCAASGSIFLKYAMCLYRQAPGKERELVAAMSFSGGGTYYADSVKGRFTISRDNAKNTVYLQMNSLKPEDTAVYYCAADKIVYVRSNWYWGFDYWGQGTQVTVSS”, the “polyreactivity (PSR sort gate)” value is “low polyreactivity”.

“QVQLVESGGGLVQAGGSLRLSCAASGSIFLKYAMGWYRQAPGKERELVAAISSRGGSTYYADSVKGRFTISRDNAKNTVYLQMNSLKPEDTAVYYCAKVRQTYFGWYSTTRDYWGQGTQVTVSS”: the “polyreactivity (PSR sort gate)” value was “high polyreactivity”.

Regarding “QVQLVESGGGLVQAGGSLRLSCAASGSIFLLYAMGWYRQAPGKERELVAAMSRGGSTYADSVKGRFTISRDNAKNTVYLQMNSLKPEVTAVYYCAASDQYRWYVHRWEDPFYYWGQGTQVTVSS”, the “polyreactivity (PSR sort gate)” value is listed as “low polyreactivity”.

“QVQLVESGGGLVQAGGSLRLSCAASGSIFLNYAMGWYRQAPGKERELVAAISYRVGRTYYADSVKGRFTISRDNAKNTVYLQMNSLKPVDTAVYYCAADSRSPGNDYWGQGTQVTVSS”: the “polyreactivity (PSR sort gate)” value is on record as “high polyreactivity”.

Take “QVQLVESGGGLVQAGGSLRLSCAASGSIFLPYAMGWNRQAPGKERELVAAITWSGGRTYYADSVKGRFTISRDNAKNTVYLQMNSLKPEDTAVYYCAADDSEGFDYWGQGTQVTVSS”: the “polyreactivity (PSR sort gate)” value was “high polyreactivity”.

In the case of “QVQLVESGGGLVQAGGSLRLSCAASGSIFLRNAMGWYRQAPGKERELVAAITWDSGDTYYADSVQGRFTISRDNAKNTVYLQMNSLKPEDTAVYYCNTLGLSSDWGQGTQVTVSS”, the “polyreactivity (PSR sort gate)” value was “low polyreactivity”.

In the case of “QVQLVESGGGLVQAGGSLRLSCAASGSIFLRYAMGWSRQARGKERELVAAITSSGRTNYADPVKGRFTISRDNAKNTVYLQMNSLKPEDTAVYYCAAVSYRQGVYRRNRYYYWGQGTQVTVSS”, the “polyreactivity (PSR sort gate)” value is listed as “high polyreactivity”.

For the sequence “QVQLVESGGGLVQAGGSLRLSCAASGSIFLSNAMGWYRQSPGKERELVAAISSSGGSTYYADSVKGRFTISRDNAKNTVYLQMNSLKPEDTAVYYCAATGYGFRGRFDYWGQGTQVTVSS”, the “polyreactivity (PSR sort gate)” value is “low polyreactivity”.

Take “QVQLVESGGGLVQAGGSLRLSCAASGSIFLSYAMGSYREAPGKERELVATITAGGGSTNYADSVKGRFTISRDNAKNTVYLQMNSLKPEDTAVYYCAAKRLSWHGYGYWGQGTQVTVSS”: the “polyreactivity (PSR sort gate)” value is reported as “low polyreactivity”.

“QVQLVESGGGLVQAGGSLRLSCAASGSIFLSYDMGWYRQAPGKERELVAAITQSGGSTYYADSVKGRFTISRDNAKNTVYLQINSLIPEDTAVYYCAADYGYLPQETYPTYGYYYWGQGTQVTVSS”: the “polyreactivity (PSR sort gate)” value was “low polyreactivity”.

For the sequence “QVQLVESGGGLVQAGGSLRLSCAASGSIFLTNAMGRYRQAPGKERELVAAIRSGGSTSYADSVKGRLTISRDNAKNTVYLQMNSLKPEDTAVYDCNAESDSRNYKVHPSGIYEYWGQGTQVTVSS”, the “polyreactivity (PSR sort gate)” value is on record as “low polyreactivity”.

For the sequence “QVQLVESGGGLVQAGGSLRLSCAASGSIFLTYDMGWYRQAPGKERELVAAITGSGDSTYYADSVKGRFTISRDNAKNTVYLQMNSLKPEDTAVYYCNADGPSTPWVDYGYWGQGTQVTVSS”, the “polyreactivity (PSR sort gate)” value was “low polyreactivity”.

Take “QVQLVESGGGLVQAGGSLRLSCAASGSIFLVNAMGWYRQAPGKERELVASITWRGGRTYYADSVKGRFTISRDNAKNTVYLEMNSLKPEDTAVYYCAARNYRTGERLRYDYWGQGTQVTVSS”: the “polyreactivity (PSR sort gate)” value was “low polyreactivity”.

“QVQLVESGGGLVQAGGSLRLSCAASGSIFLVNAMGWYRQAPGKVRELVAAITYGGDSTYYADSVKGRFTISRDHAQNTVYLQMNSLKPEDTAVYYCAADAWVGWHDEYDYWGQGTQVTVSA”: the “polyreactivity (PSR sort gate)” value is “low polyreactivity”.

These data come from the nanobody polyreactivity screen of Harvey et al. (2022).
